# The nanobody polyreactivity screen of Harvey et al. (2022)
# Test: yeast display, Sf9 membrane polyspecificity reagent, FACS + sequencing; frameworks hold sequencing errors
# Procedure, shortened: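 After 36–48 hours of galactose induction, yeast (Saccharomyces cerevisiae BJ5465) displaying a synthetic nanobody library were stained at 4 °C for 1 hour with 10% biotinylated, detergent-solubilized Sf9 membrane reagent. Streptavidin microbeads enriched the stained cells before FACS sorting into low and high (top ~1%) gates on anti-HA and streptavidin fluorescence. Each clone's polyreactivity label reflects its gate of origin.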
row,Sequence,polyreactivity (PSR sort gate)
1,QVQLVESGGGLVQAGGSLRLSCAASGRTLYFNAMGWYRQAAGKERELVASITNGGRTNYADSVKGRFTISRDNAKNTVYLQMNSLKPEDTAVYYCAKRTLCSRGVNYYWGQGTQVTVSS,high polyreactivity
2,QVQLVESGGGLVQAGGSLRLSCAASGRTLYGNAMGWYRQAPGKEREFVAAITRSGGTTYYADSVKGRFTISRDNAKNTVYLQMNSLKPEDTAVYYCATAFRGYTGLFYWGQGTQVTVSS,high polyreactivity
3,QVQLVESGGGLVQAGGSLRLSCAASGRTLYGYAMGWYRQAPGKERELVAAISESDGSTYADSVKGRFTISRDNAKNTVYLQMNSLKPEDTAVYYCAADYYWYALQDGYYTYGYTYDYWGQGSQVTVSS,low polyreactivity
4,QVQLVESGGGLVQAGGSLRLSCAASGRTLYGYAMGWYRQAPGKERELVAAISESDGSTYADSVKGRFTISRDNAKNTVYLQMNSLKPEDTAVYYCAADYYWYALQDGYYTYGYTYDYWGQGTQVTVSS,low polyreactivity
5,QVQLVESGGGLVQAGGSLRLSCAASGRTLYIYAMGWYRQAPGKERELVAAIRRIGGRTYYADSVKGRFTISRDNAKNTVYLQMNSLKPEDTAVYYCNARSYRLRFSEMDYWGQGTQVTVSS,high polyreactivity
6,QVQLVESGGGLVQAGGSLRLSCAASGRTLYKNTMGWYRPAPGKERELVAAINYSGGSTYYADSVKGRFTISRDNAKNTVYLQMNSLKPEDTAVYYCAADYYDSTGEYDYWGQGTQVTVSS,high polyreactivity
7,QVQLVESGGGLVQAGGSLRLSCAASGRTLYKYAMGWYRQAPGKERELVAAISRNGGSTYYADSVKGRFTISRDNAKNTVYLQMNSLKPEDTAVYYCNALSRYRIWSYGYWGQGTQVTVSS,high polyreactivity
8,QVQLVESGGGLVQAGGSLRLSCAASGRTLYRNAMGWYRQAPGKERELVAAISRSGGITYYADSVKGRFTISRDNAKNTVYLQMNSLKPEDTAVYYCAARYGRGVAPYGYWGQGTQVTVSS,high polyreactivity
9,QVQLVESGGGLVQAGGSLRLSCAASGRTLYRNAMGWYRQAPGKERELVARITWSGASTYYADSVKGRFTISRDNAKNTVYLQMNSLKPDDTAVYYCNTGYWYVSLGSYDYYGEYDYWGQGTQVTVSS,high polyreactivity
10,QVQLVESGGGLVQAGGSLRLSCAASGRTLYRYAMGWYRQAPGKERELVAAISSGGRTYYADSVKGRFTISRDNAKNTVYLQMNSLKPEDTAVYYCAAERGWWRNDFDYWGQGTQVTVSS,high polyreactivity
11,QVQLVESGGGLVQAGGSLRLSCAASGRTLYVYAMGWYRQAPGKEREFVAAINSSGDSTYYADSVKGRFTISRDNAKNTVYLQMNSLKPEDTAVYYCAAAGYYGYGYDYWGQGTQVTVSS,low polyreactivity
12,QVQLVESGGGLVQAGGSLRLSCAASGRTLYYYTMGWYRQAPGKERELVAAIRWSTGSTYYADSVKGRFTISRDNAKNTVYLQMNSLKPEDTAVYYCNAVVARLIFWQFDYWGQGTQVTVSS,high polyreactivity
13,QVQLVESGGGLVQAGGSLRLSCAASGRTNRFYAMGWYRPAPGNERELVAAIRNGGRTNYADSVKGRFTIARDNAKNTVYLQMNSLKPEDTAVYSCAKQPGISYRHYDYWGQGPQVTVSS,high polyreactivity
14,QVQLVESGGGLVQAGGSLRLSCAASGRTQSANAMGWYREAPGKERELVATISTRGGRTYYADSVKGRFTISRDNAKNTVYLQMNSLKPEDTAVYYCAVTIRAKYTMKEDYWGQGTQVTVSS,low polyreactivity
15,QVQLVESGGGLVQAGGSLRLSCAASGRTQWRYAMGWYRQAPGKERELVASIRSGGSTYYADSVKGRFTISRDNAKNTVYLQMNSLKPEDTAVYYCAARYYWGAEAGYYYWGQGTQVTVSS,high polyreactivity
16,QVQLVESGGGLVQAGGSLRLSCAASGRTRYPYTMGWYRQAPGKERELVAAITSSGGRTTYADSVKGRFTISRDNAKNTVFLQMYSLKPEDRAVYYCAKKFRPGYRSQYLRYSWGQGSQVTVSS,low polyreactivity
17,QVQLVESGGGLVQAGGSLRLSCAASGRTSAINAMGWYRQAPGKERELVADITRTGGTYADSVKGRFTISRDNAKNNVYLQMNSLKPEVTAVYYCAAVGAWRFDYWGQGTQVTVSS,high polyreactivity
18,QVQLVESGGGLVQAGGSLRLSCAASGRTSDGYAMGWYRQAPGKERELVAGITEGGGDTYYADSVKGRFTISRDNAKNTVYLQMNSLKPEDTAVYYCNAVEGSRLPYDYWGQGTQVTVSS,low polyreactivity
19,QVQLVESGGGLVQAGGSLRLSCAASGRTSDSYAMGWYRQAPGKERELVAVISRSGRTYYADSVKGRFTISRDNAKNTVYLQMNSLKPEDTAVYYCAAKWFRTWSGYWGQGTQVTVSS,high polyreactivity
20,QVQLVESGGGLVQAGGSLRLSCAASGRTSFQYAMGWYRQAPGKERELVAAISWSGGSTFYADSVKGRFTISRDNAKNTVYLQMNSLKPEDTAVYYCNAVSTDSWAYHGDYWGQGTQVTVSS,low polyreactivity
21,QVQLVESGGGLVQAGGSLRLSCAASGRTSGFNTMGWYRQAPGKERELVAAISFSGGSTYYADSVKGRFTISRDNAKNTVYFQMNSLKPEDTAVSYCNALFRYLYRSGDYWRQGTQVTVSS,low polyreactivity
22,QVQLVESGGGLVQAGGSLRLSCAASGRTSGYYAMGWYRQAPGKERELVATISGNVGRTYYADSVKGRFTISRDNAKNTVYLQMNSLKPEDTAVYYCAARTYGPYDYWGQGTQVTVSS,low polyreactivity

row,Sequence,polyreactivity (PSR sort gate)
1,QVQLVESGGGLVQAGGSLRLSCAASGRTSLAYSMGWYRQAPGKERELVAAINTRGGSTYYADSVKGRFTISRDNAKNTVYLQINSLKPEDTAVYYCAKGPRLYFTPDKAHWKYDSWGQGTQVTVSS,low polyreactivity
2,QVQLVESGGGLVQAGGSLRLSCAASGRTSLGYDMGWYRPAPGQEGELVAAITRSGGSTYYADSVKGRFTISRDNAKNTVYLQMNSLKPEDTAVYYCNRVLPHPDGYGVGARGYWGKGTQVTVSS,high polyreactivity
3,QVQLVESGGGLVQAGGSLRLSCAASGRTSLNYAMGWYRQAPGKERELVAAITLRGGNTYYADSVKGRFTISRDNAKNTVYLQMNSLKPEDTAVYYCAAYTKEISIYYPYEYWGQGTQVTVSS,high polyreactivity
4,QVQLVESGGGLVQAGGSLRLSCAASGRTSLRYAMGWYRQAPGKERELVAAIRYGGGSTRYADSVKGRFTISRDNAKNTVYLQMNSLKPEDTAVYYCAARYFPRIQYGRKGYDYWGQGTQVTVSS,low polyreactivity
5,QVQLVESGGGLVQAGGSLRLSCAASGRTSLYYAMGWYRQAPGKEREFVATITSGGSTNYADSVKGRFTISRDNAKNTVYLQMNSLKPEDTALYYCNARWRRGKTRYGYWGQGTQVNVSS,high polyreactivity
6,QVQLVESGGGLVQAGGSLRLSCAASGRTSRSYTMGWYRQAPGKERELVAAITRGGRTYYADSVKGRFTISRDNAMNTVYLQMNSLKPEDTAVYYCATDRVQSYGYWGQGTQVTVSS,low polyreactivity
7,QVQLVESGGGLVQAGGSLRLSCAASGRTSRYYAMGWYRQAPGKERELVAGISWSGGNTYYADSVKGRFTISRDNAKNTVYLQMNSLKPEDTAVYYCNARIGWSPSRYGYWGQGTQVTVSS,high polyreactivity
8,QVQLVESGGGLVQAGGSLRLSCAASGRTSSRYVMGWYRQAPGKERELVASLSRSGGSTSYADSVKGRFTISRDNAKNTVYLQMISLKPEDTAVDYCYARTSFQRGGGFWGQGTQVTVSS,high polyreactivity
9,QVQLVESGGGLVQAGGSLRLSCAASGRTSTIYTMGWYRQAPGKESEFVASISAGAGTYYADSVKGRFTISRDNAKNTVYLQMNSLKPEDTAVYYCNASVYWRSTRRHQMDYWGQGTQVTVSS,high polyreactivity
10,QVQLVESGGGLVQAGGSLRLSCAASGRTSVIYAMGWYRPAPGKERELVAGISYRGTSTYYADSVKGRFTISRDNAKNTVYLLMNSLKPEDTAVYYCAAESYYKYFNNYDYWGQGTQVTVAS,high polyreactivity
11,QVQLVESGGGLVQAGGSLRLSCAASGRTSVLYAMGWYRQAPGKEREFVAAITWNSGSTYYADSVKGRFTISRDNAKNTVYFQMNSLNPEDTAGYYCAADGLSYYVIRFDYWGQGTQVTVSS,low polyreactivity
12,QVQLVESGGGLVQAGGSLRLSCAASGRTSWANVMGWYRQAPGKERELVAAISSSGDSTYYADSVKGRFTISRDNAKNTVYLQMNSLKPEDTAVDYCAAGYELSDLAILDYRYDYWGQGSQVTVSS,low polyreactivity
13,QVQLVESGGGLVQAGGSLRLSCAASGRTVNIYAMGWYRQAAGKERELVADISYSDGSTDYADSVKGRFTISRDNAKNTVYLQMNSLKPEDTAVYYCAAYYYYYYGFGQRYYSWGQGTQVTVSS,low polyreactivity
14,QVQLVESGGGLVQAGGSLRLSCAASGRTVRVYAMGWYRQAPGKERELVAAINGGGSTNYADSVKGRFTISRDSAKNTVYLQMNSLKPEDTAVYYCNATGRRSKRIYDYWGQGTQVTVSS,high polyreactivity
15,QVQLVESGGGLVQAGGSLRLSCAASGRTVVNAMGWYRQAPGKERELVAAISSNGGRTYYADSVKGRFTISRDNAKNTVYLQINSLKPEDTAVYYCAAGYIWFRKIQFDYWGQGTQVTVSS,high polyreactivity
16,QVQLVESGGGLVQAGGSLRLSCAASGRTVYRYAMGWYRQAPGKERELVAAITGSGSSTYYADSVKGRFTISRDNAKNTVYLQMNSLKPEDTAVYYCAAARPRLGSAGKFGYWGQGTQVTVSS,high polyreactivity
17,QVQLVESGGGLVQAGGSLRLSCAASGRTYGEYGMGWYRQAPGKERELVAAISSTGSTYYADSVKGRFTISRDNAKNTVYLQMNSLKPEDTAVYYCAAEIVRYGDEYDYWGQGTQVTVSS,low polyreactivity
18,QVQLVESGGGLVQAGGSLRLSCAASGRTYLPNDMGWYRPAPGKERELVAAITDSGGDTYYADSVKGRFTISRDIAKNTVYLQMNSLKPEDTAVYYCAADYYYYGSYYPVEYWGHGTQVTVSS,high polyreactivity
19,QVQLVESGGGLVQAGGSLRLSCAASGRTYNVMGWYRQAPGKERYLVAAITWGGGSTHYADSVKGRFTISRDNAKNTVYLQMISLKPEDTAVYYCAADLLYKSTRVDYWGQGTQVTVSS,low polyreactivity
20,QVQLVESGGGLVQAGGSLRLSCAASGRTYRYAMGWYRQPPGKERELVAGISSSGTSTNYADSVKGRFTISRDNAKNTVYLQMNSLKPEDTAVYYCNADIIWFPADYLYDYWGQGTQVTVSS,low polyreactivity
21,QVQLVESGGGLVQAGGSLRLSCAASGRTYSNAMGWYRQAPGKELEFVASISSGGRTKDADSVKGRFTISRDNAKNTVYLQMNSLKPEDTADYYCNTVPGRYRTFDYWGQGTKVTVSS,high polyreactivity
